Assay results reported in patent US20250074988A1 (SHANGHAI HUAOTA BIOPHARMACEUTICAL, published 2025).
Substitutions are numbered along the chain they refer to.

T1: Rabbit PD-L1 (rabbit, UniProt G1SUI3 19-238)
T1 sequence: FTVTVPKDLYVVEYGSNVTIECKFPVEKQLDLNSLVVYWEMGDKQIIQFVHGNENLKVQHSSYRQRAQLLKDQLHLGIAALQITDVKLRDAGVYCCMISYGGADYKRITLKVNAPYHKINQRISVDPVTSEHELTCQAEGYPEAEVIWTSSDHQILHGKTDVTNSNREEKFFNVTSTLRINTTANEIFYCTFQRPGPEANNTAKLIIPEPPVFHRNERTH

B1: chimeric antibody 900245 (antibody, V domains shown)
VH: QIQLQQSGPELVKPGASVKISCKASGYTFTDYYINWVKQRPGQGLEWIGWIYLGSGNAKYNEKFKGKATLTVDTSSSTAYMHLSSLTSEDSAVYFCARCVGTYWYFDVWGAGTTVTVSS
VL: QILLTQSPATMSASPGEKVTMTCSASSSVSYMHWYQQKPGSSPKPWIYDTSNVASGFPARFSGSGSGTSYSLIISSMEAEDAATYYCHQRSSYPWTFGGGTKLEIK
notes: also called parent chimeric antibody; anti-PD-L1 human-mouse chimeric antibody
B2: humanized anti-PD-L1 antibody No. 900760 (antibody, V domains shown)
VH: QVQLVQSGAEVKKPGASVKVSCKASGYTFTDYYINWVRQAPGQRLEWIGWIYLGSGNAKYSQKFQGRVTITVDTSASTAYMELSSLRSEDTAVYYCARSVGTYWYFDVWGQGTTVTVSS
VL: QIQLTQSPSSLSASVGDRVTMTCSASSSVSYMHWYQQKPGKAPKPWIYDTSNVASGFPARFSGSGSGTDYTLTISSMQPEDFATYYCHQRSSYPWTFGQGTKLEIK
B3: 900245Ab-H2L2 (antibody, human IgG1, kappa, L234A L235A, V domains shown)
VH: B2 VH with V2I, S61N, Q62E, Q65K, V68A, I70L, S99C
VL: DIQLTQSPSSLSASVGDRVTITCSASSSVSYMHWYQQKPGKAPKPWIYDTSNVQSGFPSRFSGSGSGTDYTLTISSLQPEDFATYYCHQRSSYPWTFGQGTKLEIKR
notes: Humanized; huVH2 + huVL2 on human IgG1 / Ig kappa constants
B4: 900245Ab-H4L3 (antibody, human IgG1, kappa, L234A L235A, V domains shown)
VH: B2 VH with S61N, Q62E, Q65K
VL: B3 VL with P45L, W46L, N52S, V53L, F57V
notes: Humanized; huVH4 + huVL3 on human IgG1 / Ig kappa constants
B5: 900245Ab-H5L2 (antibody, human IgG1, kappa, L234A L235A, V domains shown)
VH: B2 VH
VL: B3 VL
notes: Humanized; huVH5 + huVL2 on human IgG1 / Ig kappa constants
B6: 900245Ab-H2L1 (antibody, human IgG1, kappa, L234A L235A, V domains shown)
VH: B2 VH with V2I, S61N, Q62E, Q65K, V68A, I70L, S99C
VL: B3 VL with D1Q, I21M, Q54A, S59A, L77M
notes: Humanized; huVH2 + huVL1 on human IgG1 / Ig kappa constants
B7: 900245Ab-H1L1 (antibody, human IgG1, kappa, L234A L235A, V domains shown)
VH: B2 VH with V2I, V20I, S61N, Q62E, Q65K, R67K, V68A, I70L, Y95F, S99C
VL: B3 VL with D1Q, I21M, Q54A, S59A, L77M
notes: Humanized
B8: 900245Ab-H4L1 (antibody, human IgG1, kappa, L234A L235A, V domains shown)
VH: B2 VH with S61N, Q62E, Q65K
VL: B3 VL with D1Q, I21M, Q54A, S59A, L77M
notes: Humanized; huVH4 + huVL1 on human IgG1 / Ig kappa constants
B9: 900245Ab-H3L3 (antibody, human IgG1, kappa, L234A L235A, V domains shown)
VH: B2 VH with V2I, V68A, I70L, S99C
VL: B3 VL with P45L, W46L, N52S, V53L, F57V
notes: Humanized; huVH3 + huVL3 on human IgG1 / Ig kappa constants
B10: 900245Ab-H4L2 (antibody, human IgG1, kappa, L234A L235A, V domains shown)
VH: B2 VH with S61N, Q62E, Q65K
VL: B3 VL
notes: Humanized; huVH4 + huVL2 on human IgG1 / Ig kappa constants
B11: 900245Ab-H5L1 (antibody, human IgG1, kappa, L234A L235A, V domains shown)
VH: B2 VH
VL: B3 VL with D1Q, I21M, Q54A, S59A, L77M
notes: Humanized; huVH5 + huVL1 on human IgG1 / Ig kappa constants, screening batch from ExpiCHO-s cells; also called CoAD1445
B12: 900245Ab-H5L3 (antibody, human IgG1, kappa, L234A L235A, V domains shown)
VH: B2 VH
VL: B3 VL with P45L, W46L, N52S, V53L, F57V
notes: Humanized; huVH5 + huVL3 on human IgG1 / Ig kappa constants
B13: 900245Ab-H3L1 (antibody, human IgG1, kappa, L234A L235A, V domains shown)
VH: B2 VH with V2I, V68A, I70L, S99C
VL: B3 VL with D1Q, I21M, Q54A, S59A, L77M
notes: Humanized; huVH3 + huVL1 on human IgG1 / Ig kappa constants
B14: 900245Ab-H3L2 (antibody, human IgG1, kappa, L234A L235A, V domains shown)
VH: B2 VH with V2I, V68A, I70L, S99C
VL: B3 VL
notes: Humanized; huVH3 + huVL2 on human IgG1 / Ig kappa constants

What was measured:
[1] = biological target: T2, human PD-L1 on CHO-K1-huPD-L1 cells (human, UniProt Q9NZQ7 19-290); assay: cell-based or functional assay
T2 sequence (Q9NZQ7 19-290): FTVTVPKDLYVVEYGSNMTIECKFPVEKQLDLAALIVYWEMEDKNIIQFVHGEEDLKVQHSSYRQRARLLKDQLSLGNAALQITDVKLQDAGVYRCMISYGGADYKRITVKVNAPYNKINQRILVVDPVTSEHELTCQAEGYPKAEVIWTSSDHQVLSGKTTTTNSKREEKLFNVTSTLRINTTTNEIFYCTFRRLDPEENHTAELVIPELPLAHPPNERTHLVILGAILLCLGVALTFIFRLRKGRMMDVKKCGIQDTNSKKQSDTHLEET

[2] = biological target: T3, recombinant human PD-L1 protein (Item No. 10084-H08H, Sino Biological) (human, UniProt Q9NZQ7 19-238); assay: ELISA, humanization screening
T3 construct: Bought protein; also called huPD-L1; human PD-L1 antigen
T3 sequence (Q9NZQ7 19-238 limits assumed): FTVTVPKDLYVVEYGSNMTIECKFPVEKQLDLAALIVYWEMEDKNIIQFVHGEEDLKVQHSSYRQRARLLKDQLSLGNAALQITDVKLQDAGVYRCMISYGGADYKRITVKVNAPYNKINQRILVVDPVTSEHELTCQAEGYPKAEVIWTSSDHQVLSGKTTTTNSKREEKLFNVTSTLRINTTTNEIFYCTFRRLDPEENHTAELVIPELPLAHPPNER

[3] = biological target: T3, recombinant human PD-L1 protein (Item …); assay: SPR, humanization screening
[4] = biological target: T4, human PD-L1-moFc recombinant protein (human); assay: flow cytometry, blocking of PD-L1-moFc binding to CHO-K1-huPD-1 cells
T4 construct: also called free PD-L1
T4 sequence (chain, as listed by the source limits assumed): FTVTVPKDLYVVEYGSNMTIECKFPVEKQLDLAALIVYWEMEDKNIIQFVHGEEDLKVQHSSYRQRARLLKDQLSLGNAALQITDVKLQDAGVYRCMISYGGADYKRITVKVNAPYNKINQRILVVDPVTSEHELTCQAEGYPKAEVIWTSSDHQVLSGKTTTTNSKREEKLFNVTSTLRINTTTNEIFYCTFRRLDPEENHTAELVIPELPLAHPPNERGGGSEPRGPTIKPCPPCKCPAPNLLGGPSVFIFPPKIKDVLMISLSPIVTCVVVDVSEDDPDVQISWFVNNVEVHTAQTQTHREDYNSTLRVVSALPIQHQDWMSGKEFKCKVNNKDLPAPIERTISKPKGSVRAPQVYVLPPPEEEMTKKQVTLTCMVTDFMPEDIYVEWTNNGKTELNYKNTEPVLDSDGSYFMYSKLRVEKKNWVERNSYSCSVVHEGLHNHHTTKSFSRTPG
Description: The antibodies to be tested were diluted with 3-fold gradient, added at 20 μL/well into the 96-well plate with the antigen added, mixed well, and incubated at room temperature for 15 min. CHO-K1-huPD-1 cells overexpressing human PD-1 were added at 2×10⁴/well into the 96-well plate pre-incubated with antigen-antibody, mixed well, and incubated at room temperature for 15 min. The mixture was centrifuged at 300 g for 5 min, the supernatant was removed, and the cells were washed twice with FACS buffer. Anti-moFc-Alexa 488 (Item No.: 115-545-071, Jackson) secondary antibodies were diluted at 1:300, added, mixed well, and incubated at room temperature for 15 min. The cells were washed three times and measured on instrument for the fluorescence intensity on their surfaces.

[5] = biological target: T3, recombinant human PD-L1 protein (Item …); assay: SPR, Biacore 8K, antibody captured as ligand, PD-L1 analyte, 1:1 model
[6] = biological target: T3, recombinant human PD-L1 protein (Item …); assay: SPR, Biacore 8K, antibody captured on anti-human chip, huPD-L1 analyte, 1:1 model
Description: The Anti-Human Capture-CM5 chips (Item No.: BR-1005-30, GE) were prepared according to the coupling method of the Human Antibody Captrue Kit (Item No.: BR-1008-39, GE) and the amino coupling kit (Item No.: BR-1000-50, GE). The chips were equilibrated at room temperature for 20-30 min and assembled into the Biacore 8K instrument. B5D1 was diluted to the experimental working concentration with the equilibrium buffer. The antigen was diluted to 50 nM with the equilibrium buffer, and then diluted to give samples with 7 concentration gradients by 3× serial dilution, and 2 samples with zero concentration (i.e. the equilibrium buffer) and a duplicate sample with one concentration (typically, a duplicate sample with the minimum concentration) were set. According to the antibody, the antigen huPD-L1 (Item No.: 10084-H08H, Sino Biological), and the regeneration order, the samples with 10 antigen concentrations (2 with zero concentration, 7 with gradient concentrations and 1 with duplicate concentration) were subject to experimental analysis with an antigen injection flow rate of 30 μl/min, the binding time of 120 seconds, and the dissociation time of 600 seconds.

[7] = biological target: T2, human PD-L1 on CHO-K1-huPD-L1 cells; assay: flow cytometry on CHO-K1-huPD-L1 cells; parent chimeric antibody
Description: (§1) CHO-K1-huPD-L1 cells overexpressing human PD-L1 were plated in a 96-well plate at 2×10⁴/well, and the 3-fold serial gradient dilutions of the samples to be tested were added at 20 μl/well, and co-incubated with the cells at room temperature for 30 min. The cells were washed by centrifugation to remove unbound antibodies, and 20 μl of R-Phycoerythrin AffiniPure Goat Anti-Human IgG, Fcγ Fragment Specific (Item No.: 109-115-098, Jackson ImmunoResearch; diluted with 1% (w/v) BSA-PBS at 1:200) fluorescent secondary antibodies were added to each well, and incubated for 15 min. The cells were then washed twice, resuspended in 100 μl of 1% (w/v) BSA-PBS, and detected for their fluorescence intensity at 585 nm by flow cytometry (BD, FACS Cantoll) under 488 nm excitation.

[8] = biological target: T2, human PD-L1 on CHO-K1-huPD-L1 cells; assay: flow cytometry on CHO-K1-huPD-L1 cells; humanized antibody 900760
Description: as §1

Rabbit PD-L1 = biological target: T1, Rabbit PD-L1; assay: SPR, Biacore 8K, antibody captured as ligand, PD-L1 analyte, 1:1 model
Cynomolgus PD-L1 = Cynomolgus PD-L1 (cynomolgus); assay: as above

| Binder | EC50 [2] [µg/mL] | Kd [3] [nM] | further results |
| --- | --- | --- | --- |
| B1 | 0.499 | 0.72 | EC50, T cell activation (NFAT-luciferase RLU, Jurkat-NFAT-PD-1-5B8 effector cells with CHO-K1-OS8-PD-L1-8D6 target cells) [1]: 0.287 µg/mL; IC50 [4]: 2.84 µg/mL; Kd [5]: 0.346 nM; koff [5]: 0.000127 s⁻¹; kon [5]: 368000 M⁻¹ s⁻¹; Kd [6]: 0.0773 nM; koff [6]: 9.54e-05 s⁻¹; kon [6]: 1.24e+06 M⁻¹ s⁻¹; EC50 [7]: 0.125 µg/mL |
| B2 |  |  | EC50, T cell activation (NFAT-luciferase RLU, Jurkat-NFAT-PD-1-5B8 effector cells with CHO-K1-OS8-PD-L1-8D6 target cells) [1]: 0.416 µg/mL; EC50 [8]: 0.075 µg/mL; IC50 [4]: 2.27 µg/mL; Kd (Rabbit PD-L1): 14 nM; koff (Rabbit PD-L1): 0.00235 s⁻¹; kon (Rabbit PD-L1): 167000 M⁻¹ s⁻¹; Kd (Cynomolgus PD-L1): 0.695 nM; koff (Cynomolgus PD-L1): 0.000138 s⁻¹; kon (Cynomolgus PD-L1): 198000 M⁻¹ s⁻¹; Kd [5]: 0.459 nM; koff [5]: 0.000158 s⁻¹; kon [5]: 345000 M⁻¹ s⁻¹ |
| B3 | 0.514 | 0.816 |  |
| B4 | ~1520 | 43.7 |  |
| B5 | 0.991 | 1.67 |  |
| B6 | 0.385 | 0.639 |  |
| B7 | 0.361 | 0.596 |  |
| B8 | 0.589 | 0.726 |  |
| B9 | 8.7 | 10.4 |  |
| B10 | 1.31 | 1.97 |  |
| B11 | 0.502 | 0.645 |  |
| B12 | ~1410 | 30.9 |  |
| B13 | 0.381 | 0.576 |  |
| B14 | 0.787 | 0.764 |  |
